Measured values: paper PMC9482650, “Quantitative fragmentomics allow affinity mapping of interactomes” (Nature Communications, 2022)

T1: SNTG2, Q9NY99
T1 sequence (Q9NY99 68-166, limits assumed, looked up): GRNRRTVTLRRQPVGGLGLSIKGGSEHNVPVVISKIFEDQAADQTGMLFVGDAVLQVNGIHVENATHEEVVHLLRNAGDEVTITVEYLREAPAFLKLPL

T2: PARD3B_1, Q8TEW8
T2 sequence (Q8TEW8 196-299, limits assumed, looked up): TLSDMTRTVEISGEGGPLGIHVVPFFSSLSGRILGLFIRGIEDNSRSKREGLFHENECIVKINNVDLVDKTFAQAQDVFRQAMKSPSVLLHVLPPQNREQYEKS

T3: ARHGAP21, Q5T5U3
T3 sequence (Q5T5U3 45-169, limits assumed, looked up): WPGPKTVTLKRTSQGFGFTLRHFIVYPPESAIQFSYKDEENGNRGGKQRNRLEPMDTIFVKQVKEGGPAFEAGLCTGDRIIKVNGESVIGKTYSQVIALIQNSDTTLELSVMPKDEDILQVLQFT

T4: APBA1_2, Q02410
T4 sequence (Q02410 742-832, limits assumed, looked up): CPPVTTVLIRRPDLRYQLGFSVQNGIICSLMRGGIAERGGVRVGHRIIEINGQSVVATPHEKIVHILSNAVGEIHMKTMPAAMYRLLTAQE

T5: FRMPD1, Q5SYB0
T5 sequence (Q5SYB0 52-145, limits assumed, looked up): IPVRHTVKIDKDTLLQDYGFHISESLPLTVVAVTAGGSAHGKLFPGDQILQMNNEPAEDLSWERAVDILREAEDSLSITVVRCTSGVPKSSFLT


biological target: DLG5_1, Q8TDM6; test: holdup assay; design: key: below the threshold = too weak to quantify, mostly under pKd 3.1 to 4; details: plain residues with an end cap or a label only (N-terminal biotin on a linker: ado-ado)
Sequence (Q8TDM6 617-713): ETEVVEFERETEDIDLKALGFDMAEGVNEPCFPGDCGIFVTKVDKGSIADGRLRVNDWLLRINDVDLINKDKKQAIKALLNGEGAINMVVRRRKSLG

pKd	Binder
below the threshold	KRPEMTSSSV [MUC3B, MUC3A, Q02505;Q9H195]

biological target: T1, SNTG2, Q9NY99; test: holdup assay; design: key: below the threshold = too weak to quantify, mostly under pKd 3.1 to 4; details: plain residues with an end cap or a label only (N-terminal biotin on a linker: ado-ado)

pKd	Binder
3.74	KSRVAFFEEL [NF2, P35240]
3.9	KRPEMTSSSV [MUC3B, MUC3A, Q02505;Q9H195]

biological target: T2, PARD3B_1, Q8TEW8; test: holdup assay; design: key: below the threshold = too weak to quantify, mostly under pKd 3.1 to 4; details: plain residues with an end cap or a label only (N-terminal biotin on a linker: ado-ado)

pKd	Binder
3.83	KSRVAFFEEL [NF2, P35240]

biological target: DLG4_3, P78352; test: holdup assay; design: key: below the threshold = too weak to quantify, mostly under pKd 3.1 to 4; details: plain residues with an end cap or a label only (N-terminal biotin on a linker: ado-ado)
Sequence (P78352 306-403): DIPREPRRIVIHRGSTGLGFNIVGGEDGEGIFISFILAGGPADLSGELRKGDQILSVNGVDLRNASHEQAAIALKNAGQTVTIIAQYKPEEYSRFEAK

pKd	Binder
3.52	KSRVAFFEEL [NF2, P35240]

biological target: T3, ARHGAP21, Q5T5U3; test: holdup assay; design: key: below the threshold = too weak to quantify, mostly under pKd 3.1 to 4; details: plain residues with an end cap or a label only (N-terminal biotin on a linker: ado-ado)

pKd	Binder
1.86	KRPEMTSSSV [MUC3B, MUC3A, Q02505;Q9H195]

biological target: FRMPD3, Q5JV73; test: holdup assay; design: key: below the threshold = too weak to quantify, mostly under pKd 3.1 to 4; details: plain residues with an end cap or a label only (N-terminal biotin on a linker: ado-ado)
Sequence (Q5JV73 12-100): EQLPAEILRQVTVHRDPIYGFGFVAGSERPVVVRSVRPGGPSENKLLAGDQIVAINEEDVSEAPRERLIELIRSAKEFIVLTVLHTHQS

pKd	Binder
3.5	KSRVAFFEEL [NF2, P35240]

biological target: DLG2_2, Q15700; test: holdup assay; design: key: below the threshold = too weak to quantify, mostly under pKd 3.1 to 4; details: plain residues with an end cap or a label only (N-terminal biotin on a linker: ado-ado)
Sequence (Q15700 189-283): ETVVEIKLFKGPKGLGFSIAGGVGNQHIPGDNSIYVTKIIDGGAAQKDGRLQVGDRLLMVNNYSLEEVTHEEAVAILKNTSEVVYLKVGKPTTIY

pKd	Binder
3.51	KSRVAFFEEL [NF2, P35240]

biological target: MAGI2_5, Q86UL8; test: holdup assay; design: key: below the threshold = too weak to quantify, mostly under pKd 3.1 to 4; details: plain residues with an end cap or a label only (N-terminal biotin on a linker: ado-ado)
Sequence (Q86UL8 915-1017): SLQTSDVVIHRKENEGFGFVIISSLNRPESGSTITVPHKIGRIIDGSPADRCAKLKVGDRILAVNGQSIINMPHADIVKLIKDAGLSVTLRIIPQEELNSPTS

pKd	Binder
3.82	KRPEMTSSSV [MUC3B, MUC3A, Q02505;Q9H195]

biological target: GRIP2_5, Q9C0E4; test: holdup assay; design: key: below the threshold = too weak to quantify, mostly under pKd 3.1 to 4; details: plain residues with an end cap or a label only (N-terminal biotin on a linker: ado-ado)
Sequence (Q9C0E4 544-642): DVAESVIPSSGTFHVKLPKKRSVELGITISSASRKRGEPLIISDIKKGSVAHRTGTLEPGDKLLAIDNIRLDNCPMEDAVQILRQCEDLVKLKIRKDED

pKd	Binder
3.54	KSRVAFFEEL [NF2, P35240]

biological target: T4, APBA1_2, Q02410; test: holdup assay; design: key: below the threshold = too weak to quantify, mostly under pKd 3.1 to 4; details: plain residues with an end cap or a label only (N-terminal biotin on a linker: ado-ado)

pKd	Binder
3.75	KSRVAFFEEL [NF2, P35240]

biological target: T5, FRMPD1, Q5SYB0; test: holdup assay; design: key: below the threshold = too weak to quantify, mostly under pKd 3.1 to 4; details: plain residues with an end cap or a label only (N-terminal biotin on a linker: ado-ado)

pKd	Binder
below the threshold	KRPEMTSSSV [MUC3B, MUC3A, Q02505;Q9H195]

biological target: PDLIM1, O00151; test: holdup assay; design: key: below the threshold = too weak to quantify, mostly under pKd 3.1 to 4; details: plain residues with an end cap or a label only (N-terminal biotin on a linker: ado-ado)
Sequence (O00151 1-87): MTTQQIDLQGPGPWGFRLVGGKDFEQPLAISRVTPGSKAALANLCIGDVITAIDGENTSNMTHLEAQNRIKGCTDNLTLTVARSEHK

pKd	Binder
3.76	KSRVAFFEEL [NF2, P35240]

biological target: PICK1, Q9NRD5; test: holdup assay; design: key: below the threshold = too weak to quantify, mostly under pKd 3.1 to 4; details: plain residues with an end cap or a label only (N-terminal biotin on a linker: ado-ado)
Sequence (Q9NRD5 17-115): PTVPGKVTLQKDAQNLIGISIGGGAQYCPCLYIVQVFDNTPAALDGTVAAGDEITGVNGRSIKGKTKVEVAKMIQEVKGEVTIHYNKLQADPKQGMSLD

pKd	Binder
2.09	KRPEMTSSSV [MUC3B, MUC3A, Q02505;Q9H195]

biological target: FRMPD2_2, Q68DX3; test: holdup assay; design: key: below the threshold = too weak to quantify, mostly under pKd 3.1 to 4; details: plain residues with an end cap or a label only (N-terminal biotin on a linker: ado-ado)
Sequence (Q68DX3 944-1038): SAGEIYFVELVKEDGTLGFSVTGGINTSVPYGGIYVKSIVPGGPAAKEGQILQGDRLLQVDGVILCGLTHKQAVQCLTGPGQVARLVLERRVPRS

pKd	Binder
below the threshold	KRPEMTSSSV [MUC3B, MUC3A, Q02505;Q9H195]

biological target: LIMK2, P53671; test: holdup assay; design: key: below the threshold = too weak to quantify, mostly under pKd 3.1 to 4; details: plain residues with an end cap or a label only (N-terminal biotin on a linker: ado-ado)
Sequence (P53671 143-248): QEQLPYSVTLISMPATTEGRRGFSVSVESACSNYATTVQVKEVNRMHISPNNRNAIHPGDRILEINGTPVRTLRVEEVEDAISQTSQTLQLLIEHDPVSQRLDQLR

pKd	Binder
below the threshold	KRPEMTSSSV [MUC3B, MUC3A, Q02505;Q9H195]
